This is an account of results in paper PMC7612376, “Structural basis of meiotic chromosome synaptic elongation through hierarchical fibrous assembly of SYCE2-TEX12” (Nature structural & molecular biology, 2021).

Residue numbers refer to the chain shown, from its start.

What all share (experiment): SEC-MALS; co-purified complexes at >1 mg/ml on Superdex 200 Increase 10/300 GL in 20 mM Tris pH 8.0, 150 mM KCl, 2 mM DTT; in Fig. 1 core at 200 uM and full-length at 100 uM (4 mg/ml)
For orientation: SEC sorts molecules by how far they enter the pores of the column.

Test [1] addresses SYCE2-TEX12 core FFV (TEX12 F102A F109A V116A), 2:2 building block (human) (UniProt Q6PIF2).
For test [2], the target named is T1, SYCE2 core V149E V153E V156E L160E (human, UniProt Q6PIF2 57-165, V149E | V153E | V156E | L160E).
T1 construct: SYCE2, human, core, residues 57-165, with V149E, V153E, V156E and L160E; The four mutations are read as combined in one construct (one mass is printed for it); also called V149E, V153E, V156E and L160E mutant; S2C hydrophobic core mutant; source: E. coli BL21 (DE3), co-expressed with TEX12, purified (Ni-NTA, amylose, ion exchange, SEC); not shown: MBP, N-terminal, cleaved
T1 sequence (looked up): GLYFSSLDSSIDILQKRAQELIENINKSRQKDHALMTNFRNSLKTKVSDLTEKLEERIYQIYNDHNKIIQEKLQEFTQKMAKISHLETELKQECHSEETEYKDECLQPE
Conditions: both partners purified.

Test [3] deals with T2, SYCE2 core H89E Y115E (human, UniProt Q6PIF2 57-165, H89E | Y115E).
T2 construct: SYCE2, human, core, residues 57-165, with H89E and Y115E; source: E. coli BL21 (DE3), co-expressed with TEX12, purified (Ni-NTA, amylose, ion exchange, SEC); not shown: MBP, N-terminal, cleaved
T2 sequence (looked up): T1 sequence (looked up) with H33E, Y59E, E93V, E97V, E100V, E104L
Conditions: both partners purified.

The target of test [4] is T3, SYCE2 core ΔS2C (amino-acids 57-154) (human, UniProt Q6PIF2 57-154).
T3 construct: SYCE2, human, ΔS2C, residues 57-154; source: E. coli BL21 (DE3), co-expressed with TEX12, purified (Ni-NTA, amylose, ion exchange, SEC); not shown: MBP, N-terminal, cleaved
T3 sequence (looked up): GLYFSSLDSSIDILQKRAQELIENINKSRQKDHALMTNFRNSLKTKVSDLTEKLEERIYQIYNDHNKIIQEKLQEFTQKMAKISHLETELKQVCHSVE
Conditions: both partners purified.

Test [5] deals with T4, SYCE2 core (amino-acids 57-165) (human, UniProt Q6PIF2 57-165).
T4 construct: SYCE2, human, core, residues 57-165; also called SYCE2 structural core; source: E. coli BL21 (DE3), co-expressed with TEX12, purified (Ni-NTA, amylose, ion exchange, SEC); not shown: MBP, N-terminal, cleaved
T4 sequence (looked up): T1 sequence (looked up) with E93V, E97V, E100V, E104L
Conditions: both partners purified.

The target in test [6] is T5, MBP-SYCE2 core ΔS2C (57-154) fusion protein (human, UniProt Q6PIF2 57-154).
T5 construct: SYCE2, human, ΔS2C, residues 57-154; also called ΔS2C MBP-fusion, SYCE2 chain; source: E. coli BL21 (DE3), co-expressed with TEX12, purified; not shown: MBP, N-terminal, kept
T5 sequence (looked up): T3 sequence (looked up)
Conditions: both partners purified.

For test [7], the target named is T6, MBP-SYCE2 core (57-165) fusion protein (human, UniProt Q6PIF2 57-165).
T6 construct: SYCE2, human, core, residues 57-165; also called SYCE2-TEX12 core MBP-fusion, SYCE2 chain; source: E. coli BL21 (DE3), co-expressed with TEX12, purified; not shown: MBP, N-terminal, kept
T6 sequence (looked up): T1 sequence (looked up) with E93V, E97V, E100V, E104L
Conditions: both partners purified.

In test [1], “SYCE2-TEX12 core FFV (TEX12 F102A F109A V116A), 2:2 building block (from UniProt Q6PIF2 57-165; Q9BXU0 49-123) (complex)” showed a stoichiometry N (2:2 building blocks) of 2.

B1: TEX12 core (amino-acids 49-123) (domain or fragment, human, UniProt Q9BXU0 49-123, looked up)
chain: KDEALEKDLNDVSKEINLMLSTYAKLLSERAAVDASYIDEIDELFKEANAIENFLIQKREFLRQRFTVIANTLHR
notes: TEX12, human, core, residues 49-123; also called TEX12 structural core; source: E. coli BL21 (DE3), co-expressed with SYCE2, purified (Ni-NTA, amylose, ion exchange, SEC); not shown: His6, N-terminal, cleaved
What is called stoichiometry N is a count of units in the complex or per binding partner. As for B1, the “stoichiometry N” value was 1 TEX12 per SYCE2 (2:2) in test [2], 1 TEX12 per SYCE2 (2:2) in test [3], 1 TEX12 per SYCE2 (2:2) in test [4] and 1 TEX12 per SYCE2 (4:4) in test [5].

B2: TEX12 core (49-123) of the SYCE2-TEX12 core MBP-fusion proteins (domain or fragment, human, UniProt Q9BXU0 49-123, looked up)
chain: B1 chain
notes: TEX12, human, core, residues 49-123; also called TEX12 core in the MBP-fusion complexes; source: E. coli BL21 (DE3), co-expressed with MBP-SYCE2, purified
On to B2, for which the “stoichiometry N” value in test [6] was 1 TEX12 per SYCE2 (2:2); in test [7] it was 1 TEX12 per SYCE2 (4:4).
